According to patent US20080188000:

Key:
[1] = tested on: ZFN 9666 (GR exon 3 four-finger ZFP-FokI) (synthetic); assay: cell_activity; conditions: paired with 9674; Ad5/F35 moi 100, CD8+ T-cells after dexamethasone selection; also Cel I cleavage in K562 (FIG. 3A)
[2] = tested on: ZFN 9674 (GR exon 3 four-finger ZFP-FokI) (synthetic); assay: cell_activity; conditions: paired with 9666; Ad5/F35 moi 100, CD8+ T-cells after dexamethasone selection; also Cel I cleavage in K562 (FIG. 3A)

Sequence | activity (% GR alleles mutated) [1] | activity (% GR alleles mutated) [2]
CAACAGGACCAC (double strand) [GR exon 3 sense target (nt 1370-1381)] | 70 | –
GTTGAGGAGCTG (double strand) [GR exon 3 antisense target (nt 1353-1364)] | – | 70
